Experimental data as given in paper PMC10397247.
Where two headings read alike, the source gives them in different places.

Assays:
[1] = target: T1, 4H626-bH; assay: two-hybrid library CCNG1;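 further: natural log of median RNA to DNA barcode read ratio; higher means stronger binding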
T1 chain: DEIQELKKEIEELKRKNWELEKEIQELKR

[2] = target: T2, 4H3277-bH; assay: two-hybrid library CCNG1;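 further: natural log of median RNA to DNA barcode read ratio; higher means stronger binding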
T2 chain: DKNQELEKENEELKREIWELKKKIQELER

[3] = target: T3, 4H3858-bH; assay: two-hybrid library CCNG1;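 further: natural log of median RNA to DNA barcode read ratio; higher means stronger binding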
T3 chain: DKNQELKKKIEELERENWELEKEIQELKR

[4] = target: T4, 4H591-bH; assay: two-hybrid library CCNG1;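 further: natural log of median RNA to DNA barcode read ratio; higher means stronger binding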
T4 chain: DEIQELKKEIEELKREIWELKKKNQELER

[5] = target: T5, 4H906-bH; assay: two-hybrid library CCNG1
T5 chain: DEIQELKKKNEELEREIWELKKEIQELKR

[6] = target: T6, 4H3613-bH; assay: two-hybrid library CCNG1
T6 chain: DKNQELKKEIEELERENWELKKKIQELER

[7] = target: T7, 4H1710-bH; assay: two-hybrid library CCNG1
T7 chain: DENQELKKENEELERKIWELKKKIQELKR

[8] = target: T8, 4H3070-bA; assay: two-hybrid library CCNG1
T8 chain: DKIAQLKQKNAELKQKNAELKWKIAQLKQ

[9] = target: T9, 4H1985-bH; assay: two-hybrid library CCNG1
T9 chain: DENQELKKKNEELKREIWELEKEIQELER

[10] = target: T10, 4H570-bH; assay: two-hybrid library CCNG1
T10 chain: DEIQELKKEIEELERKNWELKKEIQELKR

[11] = target: T11, 4H3926-bH; assay: two-hybrid library CCNG1
T11 chain: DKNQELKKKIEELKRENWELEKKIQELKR

[12] = target: T12, 4H3817-bH; assay: two-hybrid library CCNG1
T12 chain: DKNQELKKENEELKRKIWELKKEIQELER

[13] = target: T13, 4H3162-bH; assay: two-hybrid library CCNG1
T13 chain: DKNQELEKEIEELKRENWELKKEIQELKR

[14] = target: T14, 4H850-bH; assay: two-hybrid library CCNG1
T14 chain: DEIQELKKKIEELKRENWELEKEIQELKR

[15] = target: T15, 4H3298-bH; assay: two-hybrid library CCNG1
T15 chain: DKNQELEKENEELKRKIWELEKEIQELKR

[16] = target: T16, 4H1899-bH; assay: two-hybrid library CCNG1
T16 chain: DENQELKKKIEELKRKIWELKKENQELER

[17] = target: T17, 4H3628-bH; assay: two-hybrid library CCNG1
T17 chain: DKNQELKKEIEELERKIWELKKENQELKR

[18] = target: T18, 4H3462-bH; assay: two-hybrid library CCNG1
T18 chain: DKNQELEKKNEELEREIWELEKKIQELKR

[19] = target: T19, 4H1544-bH; assay: two-hybrid library CCNG1
T19 chain: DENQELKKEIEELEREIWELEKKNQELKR

[20] = target: T20, 4H3497-bH; assay: two-hybrid library CCNG1
T20 chain: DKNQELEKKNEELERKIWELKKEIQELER

[21] = target: T21, 4H3974-bH; assay: two-hybrid library CCNG1
T21 chain: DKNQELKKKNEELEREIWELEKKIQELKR

[22] = target: T22, 4H3175-bH; assay: two-hybrid library CCNG1
T22 chain: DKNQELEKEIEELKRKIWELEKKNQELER

[23] = target: T23, 4H510-AA; assay: two-hybrid library CCmax; conditions: mean of both orientations
T23 chain: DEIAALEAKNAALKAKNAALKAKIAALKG

[24] = target: GCN2_T; assay: two-hybrid library CCmax
[25] = target: T24, O14-AA; assay: two-hybrid library CCmax; conditions: mean of both orientations
T24 chain: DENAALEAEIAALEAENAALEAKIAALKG

[26] = target: T25, 4H3905-AA; assay: two-hybrid library CCmax; conditions: mean of both orientations
T25 chain: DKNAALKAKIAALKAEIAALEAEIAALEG

[27] = target: T26, O11-AA; assay: two-hybrid library CCmax; conditions: mean of both orientations
T26 chain: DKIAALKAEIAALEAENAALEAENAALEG

[28] = target: T27, 4H3590-AA; assay: two-hybrid library CCmax; conditions: mean of both orientations
T27 chain: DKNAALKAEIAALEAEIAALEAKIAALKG

[29] = target: T28, 4H4038-AA; assay: two-hybrid library CCmax; conditions: mean of both orientations
T28 chain: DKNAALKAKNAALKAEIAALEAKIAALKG

[30] = target: T29, 4H3129-AA; assay: two-hybrid library CCmax
T29 chain: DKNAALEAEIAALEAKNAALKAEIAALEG

[31] = target: T30, 4H_APH; assay: two-hybrid library CCmax; conditions: mean of both orientations
T30 chain: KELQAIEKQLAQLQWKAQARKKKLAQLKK

[32] = target: T31, O13-AA; assay: two-hybrid library CCmax; conditions: mean of both orientations
T31 chain: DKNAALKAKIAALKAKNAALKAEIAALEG

[33] = target: T32, 4H2705-AA; assay: two-hybrid library CCmax; conditions: mean of both orientations
T32 chain: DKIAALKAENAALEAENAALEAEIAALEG

[34] = target: T33, 4H3625-AA; assay: two-hybrid library CCmax; conditions: mean of both orientations
T33 chain: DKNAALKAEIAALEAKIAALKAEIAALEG

[35] = target: T34, 4H_BCR; assay: two-hybrid library CCmax; conditions: mean of both orientations
T34 chain: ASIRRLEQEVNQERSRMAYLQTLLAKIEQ

[36] = target: T35, 4H2622-AA; assay: two-hybrid library CCmax; conditions: mean of both orientations
T35 chain: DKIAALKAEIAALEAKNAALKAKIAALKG

[37] = target: T36, 4H2736-AA; assay: two-hybrid library CCmax; conditions: mean of both orientations
T36 chain: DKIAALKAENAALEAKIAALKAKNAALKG

[38] = target: T37, 4H451-AA; assay: two-hybrid library CCmax; conditions: mean of both orientations
T37 chain: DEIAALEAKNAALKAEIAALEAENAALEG

[39] = target: T38, 4H2888-AA; assay: two-hybrid library CCmax; conditions: mean of both orientations
T38 chain: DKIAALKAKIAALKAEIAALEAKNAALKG

[40] = target: T39, 4H1392-AA; assay: two-hybrid library CCmax
T39 chain: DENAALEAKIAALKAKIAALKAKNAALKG

[41] = target: T40, 4H3587-AA; assay: two-hybrid library CCmax; conditions: mean of both orientations
T40 chain: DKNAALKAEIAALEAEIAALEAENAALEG

[42] = target: T41, 4H337-AA; assay: two-hybrid library CCmax; conditions: mean of both orientations
T41 chain: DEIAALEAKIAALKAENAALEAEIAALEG

[43] = target: T42, 4H384-AA; assay: two-hybrid library CCmax; conditions: mean of both orientations
T42 chain: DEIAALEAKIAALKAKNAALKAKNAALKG

[44] = target: 4H_GCN4; assay: two-hybrid library CCmax
4H_GCN4, sequence (chain, as listed by the source): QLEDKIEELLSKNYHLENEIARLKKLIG

[45] = target: T43, 4H43-AA; assay: two-hybrid library CCmax; conditions: mean of both orientations
T43 chain: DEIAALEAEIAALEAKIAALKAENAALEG

[46] = target: T44, 4H3049-AA; assay: two-hybrid library CCmax; conditions: mean of both orientations
T44 chain: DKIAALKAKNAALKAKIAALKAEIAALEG

[47] = target: T45, 4H3961-bN; assay: two-hybrid library CCNG1
T45 chain: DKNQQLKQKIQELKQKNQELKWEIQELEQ

[48] = target: T46, 4H363-bN; assay: two-hybrid library CCNG1
T46 chain: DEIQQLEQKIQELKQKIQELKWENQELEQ

[49] = target: T47, 4H470-bN; assay: two-hybrid library CCNG1
T47 chain: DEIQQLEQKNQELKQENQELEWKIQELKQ

[50] = target: T48, 4H344-bN; assay: two-hybrid library CCNG1
T48 chain: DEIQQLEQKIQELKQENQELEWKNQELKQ

[51] = target: T49, 4H3907-bN; assay: two-hybrid library CCNG1
T49 chain: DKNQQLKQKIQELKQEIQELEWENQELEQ

[52] = target: T50, 4H4038-bN; assay: two-hybrid library CCNG1
T50 chain: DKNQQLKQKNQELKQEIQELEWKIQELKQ

[53] = target: T51, 4H3601-bN; assay: two-hybrid library CCNG1
T51 chain: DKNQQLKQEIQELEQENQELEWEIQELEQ

[54] = target: T52, O4; assay: two-hybrid library CCNG1
T52 chain: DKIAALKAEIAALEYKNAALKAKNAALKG

[55] = target: T53, O2; assay: two-hybrid library CCNG1
T53 chain: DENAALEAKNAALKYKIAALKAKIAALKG

[56] = target: T54, O9; assay: two-hybrid library CCNG1
T54 chain: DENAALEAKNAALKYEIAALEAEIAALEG

[57] = target: T55, O8; assay: two-hybrid library CCNG1
T55 chain: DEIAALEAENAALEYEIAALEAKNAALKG

[58] = target: T56, O6; assay: two-hybrid library CCNG1
T56 chain: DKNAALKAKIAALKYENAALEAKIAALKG

[59] = target: T57, O15; assay: two-hybrid library CCNG1
T57 chain: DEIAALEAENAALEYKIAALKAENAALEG

[60] = target: T58, O13; assay: two-hybrid library CCNG1
T58 chain: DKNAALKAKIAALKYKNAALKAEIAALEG

[61] = target: T59, O14; assay: two-hybrid library CCNG1
T59 chain: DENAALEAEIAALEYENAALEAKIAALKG

[62] = target: T60, O16; assay: two-hybrid library CCNG1
T60 chain: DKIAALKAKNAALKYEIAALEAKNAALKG

[63] = target: T61, O5; assay: two-hybrid library CCNG1
T61 chain: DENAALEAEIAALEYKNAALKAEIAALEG

[64] = target: T62, O3; assay: two-hybrid library CCNG1
T62 chain: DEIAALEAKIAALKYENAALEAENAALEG

[65] = target: T63, O7; assay: two-hybrid library CCNG1
T63 chain: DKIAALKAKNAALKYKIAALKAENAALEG

[66] = target: T64, 4H3632-bA; assay: two-hybrid library CCNG1
T64 chain: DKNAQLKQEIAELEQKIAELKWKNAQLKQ

[67] = target: T65, 4H342-bA; assay: two-hybrid library CCNG1
T65 chain: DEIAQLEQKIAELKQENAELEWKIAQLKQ

[68] = target: T66, 4H883-bA; assay: two-hybrid library CCNG1
T66 chain: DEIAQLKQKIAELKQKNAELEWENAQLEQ

[69] = target: T67, 4H496-bA; assay: two-hybrid library CCNG1
T67 chain: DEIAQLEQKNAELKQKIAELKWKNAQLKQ

Binder: DENQELKKEIEELEREIWELEKKNQELKR [4H1544-bH]
- interaction score [1]: -0.838
- interaction score [2]: 0.893
- interaction score [3]: 0.651
- interaction score [4]: 1.2
- interaction score [5]: 0.0592
- interaction score [6]: 0.423
- interaction score [7]: 0.154
- interaction score [8]: 0.826
- interaction score [9]: 0.533
- interaction score [10]: 0.232
- interaction score [11]: 0.243
- interaction score [12]: 0.913
- interaction score [13]: 0.879
- interaction score [14]: 1.29
- interaction score [15]: 0.51
- interaction score [16]: 1.61
- interaction score [17]: -0.0215
- interaction score [18]: 0.608
- interaction score [19]: 0.599
- interaction score [20]: 0.211
- interaction score [21]: 0.61
- interaction score [22]: -0.419

Binder: DENAALEAKIAALKAKIAALKAKNAALKG [4H1392-AA]
- interaction score [23]: -1.62
- interaction score [24]: -1.63
- interaction score [25]: 0.474
- interaction score [26]: 0.91
- interaction score [27]: 1.25
- interaction score [28]: 1.89
- interaction score [29]: 0.56
- interaction score [30]: -1.07
- interaction score [31]: -1.59
- interaction score [32]: -1.99
- interaction score [33]: -1.59
- interaction score [34]: -0.223
- interaction score [35]: -2.2
- interaction score [36]: -1.4
- interaction score [37]: -1.42
- interaction score [38]: -0.924
- interaction score [39]: -0.448
- interaction score [40]: -0.666
- interaction score [41]: 2.24
- interaction score [42]: -0.783
- interaction score [43]: -1.28
- interaction score [44]: -1.48
- interaction score [45]: 1.25
- interaction score [46]: -0.0185

Binder: DEIQQLEQKIQELKQENQELEWKNQELKQ [4H344-bN]
- interaction score [47]: 0.044
- interaction score [48]: -2.06
- interaction score [49]: 0.132
- interaction score [50]: 0.297
- interaction score [51]: -2.07

Binder: DKNQQLKQEIQELEQENQELEWEIQELEQ [4H3601-bN]
- interaction score [52]: -1.28
- interaction score [51]: -1.37
- interaction score [53]: -1.57

Binder: DKNAALKAKIAALKYKNAALKAEIAALEG [O13]
- interaction score [54]: -2.24
- interaction score [55]: -2.42
- interaction score [56]: -2.39
- interaction score [57]: -1.26
- interaction score [58]: -1.32
- interaction score [59]: 1.46
- interaction score [60]: -2.48
- interaction score [61]: 1.68
- interaction score [62]: -2.61
- interaction score [63]: -1.38
- interaction score [64]: -2.26
- interaction score [65]: -2.53

Binder: DKIAQLKQKNAELKQKNAELKWKIAQLKQ [4H3070-bA]
- interaction score [66]: -1.37
- interaction score ([8]; mean of both orientations): -0.355
- interaction score [67]: 1.46
- interaction score [68]: 0.052
- interaction score [69]: -1.47
